Measurements taken from article PMC7611231, “Allosteric Activation of the ATPase Activity of the Escherichia coli RhlB RNA Helicase*” (The Journal of biological chemistry, 2007).

B1: Escherichia coli DEAD box RNA helicase RhlB, wild type (enzyme, E. coli, UniProt P0A8J8 1-421, looked up)
chain: MSKTHLTEQKFSDFALHPKVVEALEKKGFHNCTPIQALALPLTLAGRDVAGQAQTGTGKTMAFLTSTFHYLLSHPAIADRKVNQPRALIMAPTRELAVQIHADAEPLAEATGLKLGLAYGGDGYDKQLKVLESGVDILIGTTGRLIDYAKQNHINLGAIQVVVLDEADRMYDLGFIKDIRWLFRRMPPANQRLNMLFSATLSYRVRELAFEQMNNAEYIEVEPEQKTGHRIKEELFYPSNEEKMRLLQTLIEEEWPDRAIIFANTKHRCEEIWGHLAADGHRVGLLTGDVAQKKRLRILDEFTRGDLDILVATDVAARGLHIPAVTHVFNYDLPDDCEDYVHRIGRTGRAGASGHSISLACEEYALNLPAIETYIGHSIPVSKYNPDALMTDLPKPLRLTRPRTGNGPRRTGAPRNRRRSG
notes: The same untagged protein from two vectors (pET11a alone; second cloning site of pRSF-Duet-1, NdeI/XhoI, in pRneRhlB); also called WT RhlB; Helicase B; source: E. coli BL21(DE3), pET11a, purified (published procedure plus S200 size exclusion)
B2: N-terminal His6-tagged RNase E residues 696-762 (domain or fragment, E. coli, UniProt P21513 696-762, looked up)
chain: ALNVEEQSVQETEQEERVRPVQPRRKQRQLNQKVRYEQSVAEEAVVAPVVEETVAAEPIVQEAPAPR
notes: Cloned BamHI/SalI in the first cloning site of pRSF-Duet-1; also called RNase E peptide; source: E. coli, pRSF-Duet-1, purified (Ni-NTA, S200); also co-expressed with RhlB from pRneRhlB in E. coli BL21(DE3), co-purified (Ni-NTA, SP, S200); not shown: His6, N-terminal, kept

Tests used:
[1] = target: RNase E 628-843 (Escherichia coli) (UniProt P21513); details: cited from earlier work
Chain of RNase E 628-843 (Escherichia coli) (P21513 628-843): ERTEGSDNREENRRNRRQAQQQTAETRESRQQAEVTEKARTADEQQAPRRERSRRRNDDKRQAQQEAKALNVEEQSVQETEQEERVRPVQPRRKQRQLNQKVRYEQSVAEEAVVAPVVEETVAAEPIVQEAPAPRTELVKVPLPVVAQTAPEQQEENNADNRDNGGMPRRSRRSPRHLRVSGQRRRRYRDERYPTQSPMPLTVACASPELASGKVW

[2] = target: B2; assay: SEC; co-expressed in E. coli from a di-cistronic vector; His6-RNase E-(696-762) held on Ni-NTA, then SP column and S200 size exclusion; fractions on SDS-PAGE; details: partners not purified
[3] = target: B1; assay: native MS; nanoflow ESI under non-dissociating conditions; co-expressed complex after size exclusion chromatography, 5-20 uM, 250 mM ammonium acetate; MS/MS of the +15 ion; details: both partners purified
[4] = target: B1; assay: ITC; 300 uM RNase E-(696-762) in the syringe titrated into 20 uM WT RhlB or variant in the cell; 25 C; 50 mM potassium phosphate pH 7.4, 100 mM NaCl, 1 mM dithiothreitol (methods; the table's caption says 100 mM KPi, 50 mM NaCl); 1:1 model; Ka are lower limits; details: both partners purified
RhlB H320D (E. coli) = assay: as above
RhlB S381A (E. coli) [5] = assay: as above
RhlB S381A (E. coli) [6] = target: RhlB S381A (E. coli)

Molecule: RhlB (from UniProt P0A8J8)
Kd [1]: 50 nM

Molecule: B1
stoichiometry N [2]: ~1

Molecule: B2
stoichiometry N [3]: 1
Ka [4]: ≥ 1.1e+08 M⁻¹
dH [4]: -27.6 kcal/mol
stoichiometry N [4]: 0.92
Ka (RhlB H320D (E. coli)): > 7e+07 M⁻¹
dH (RhlB H320D (E. coli)): -29 kcal/mol
stoichiometry N (RhlB H320D (E. coli)): 0.83
Ka (RhlB S381A (E. coli) [5]): > 8e+07 M⁻¹
dH (RhlB S381A (E. coli) [5]): -23.3 kcal/mol
stoichiometry N (RhlB S381A (E. coli) [5]): 1.2
ATPase activity of S381A RhlB with RNase E-(696-762) and bulk S. cerevisiae RNA (S381A RhlB alone: ≤0.5) (mol Pi/min/mol protein) (RhlB S381A (E. coli) [6]): 9.4
